Source: patent US20110097341A1 (Pfizer, published 2011)
Read-outs that look alike come from different tables or passages of the source.

Key:
Assay in all cases: cell-based or functional assay
rat NGF [1] = target: T1, rat NGF (rat, UniProt P25427 122-241)
human NGF = human NGF (human, UniProt P01138 122-241)
rat NGF [2] = target: T1, rat NGF; remark: listed apart in the source
rat NGF [3] = target: T1, rat NGF; remark: listed apart in the source

Chain of human NGF (P01138 122-241 limits assumed): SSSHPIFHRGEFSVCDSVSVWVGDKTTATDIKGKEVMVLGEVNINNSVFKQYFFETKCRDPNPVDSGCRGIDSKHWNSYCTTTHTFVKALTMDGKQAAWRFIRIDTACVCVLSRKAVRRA
T1 sequence (P25427 122-241 limits assumed): as the sequence (P01138 122-241 limits assumed) above, with S3T, I6V, R9M, M37T, D60A, D65E, M92T, G94D, V117A, A120G counted along it

## mouse antibody 911 (Fab)
Rat NGF [1]
  IC50 (1.5 pM NGF), NGF-dependent survival of mouse E13.5 trigeminal neurons: 34.6 pM
  IC50 (15 pM NGF), NGF-dependent survival of mouse E13.5 trigeminal neurons: 161 pM
Human NGF
  IC50 (in the presence of 1.5 pM NGF), NGF-dependent survival of mouse E13.5 trigeminal neurons: 63.5 pM
  IC50 (in the presence of 15 pM NGF), NGF-dependent survival of mouse E13.5 trigeminal neurons: 322 pM
  concentration that totally blocked NGF-elicited survival of trigeminal neurons: 20 nM

B1: 3C (Fab, V domains shown)
VH: QVQLQESGPGLVKPSETLSLTCTVSGFSLIGYDLNWIRQPPGKGLEWIGIIWGDGTTDYNSAVKSRVTISKDTSKNQFSLKLSSVTAADTAVYYCARGGYWYATSYYFDYWGQGTLVTVS
VL: DIQMTQSPSSLSASVGDRVTITCRASQSISNNLNWYQQKPGKAPKLLIYYTSRFHSGVPSRFSGSGSGTDFTFTISSLQPEDIATYYCQQERTLPYTFGQGTKLEIKR
Human NGF
  IC50 (in the presence of 1.5 pM NGF), NGF-dependent survival of mouse E13.5 trigeminal neurons: 5.6 pM
  IC50 (in the presence of 15 pM NGF), NGF-dependent survival of mouse E13.5 trigeminal neurons: 80.9 pM
Rat NGF [2]
  IC50 (1.5 pM NGF), NGF-dependent survival of mouse E13.5 trigeminal neurons: 6 pM
  IC50 (15 pM NGF), NGF-dependent survival of mouse E13.5 trigeminal neurons: 31.6 pM

B2: H19-L129 (Fab, V domains shown)
VH: QVQLQESGPGLVKPSETLSLTCTVSGFSLIGYDLNWIRQPPGKGLEWIGIIWGDGTTDYNSAVKSRVTISKDTSKNQFSLKLSSVTAADTAVYYCARGGYYYGTSYYFDYWGQGTLVTVS
VL: DIQMTQSPSSLSASVGDRVTITCRASQSISNNLNWYQQKPGKAPKLLIYYTSRFHSGVPSRFSGSGSGTDFTFTISSLQPEDIATYYCQQSKTLPYTFGQGTKLEIKR
Human NGF
  IC50 (in the presence of 1.5 pM NGF), NGF-dependent survival of mouse E13.5 trigeminal neurons: 9.6 pM
  IC50 (in the presence of 15 pM NGF), NGF-dependent survival of mouse E13.5 trigeminal neurons: 60.1 pM
Rat NGF [2]
  IC50 (1.5 pM NGF), NGF-dependent survival of mouse E13.5 trigeminal neurons: 6 pM
  IC50 (15 pM NGF), NGF-dependent survival of mouse E13.5 trigeminal neurons: 31 pM

B3: 8L2-6D5 (Fab, V domains shown)
VH: QVQLQESGPGLVKPSETLSLTCTVSGFSLIGYDINWIRQPPGKGLEWIGMIWGDGTTDYNSALKSRVTISKDTSKNQFSLKLSSVTAADTAVYYCARGGYYYGTSYYFDYWGQGTLVTVS
VL: DIQMTQSPSSLSASVGDRVTITCRASQDISNHLNWYQQKPGKAPKLLIYYISRFHSGVPSRFSGSGSGTDFTFTISSLQPEDIATYYCQQSKTLPYTFGQGTKLEIKR
Human NGF
  IC50 (in the presence of 1.5 pM NGF), NGF-dependent survival of mouse E13.5 trigeminal neurons: 462 pM
  IC50 (in the presence of 15 pM NGF), NGF-dependent survival of mouse E13.5 trigeminal neurons: 1580 pM
Rat NGF [2]
  IC50 (1.5 pM NGF), NGF-dependent survival of mouse E13.5 trigeminal neurons: 169 pM
  IC50 (15 pM NGF), NGF-dependent survival of mouse E13.5 trigeminal neurons: 730 pM

B4: Fab E3 (Fab, V domains shown)
VH: QVQLQESGPGLVKPSETLSLTCTVSGFSLIGYDLNWIRQPPGKGLEWIGIIWGDGTTDYNSAVKSRVTISKDTSKNQFSLKLSSVTAADTAVYYCARGGYWYATSYYFDYWGQGTLVTVS
VL: DIQMTQSPSSLSASVGDRVTITCRASQSISNNLNWYQQKPGKAPKLLIYYTSRFHSGVPSRFSGSGSGTDFTFTISSLQPEDIATYYCQQEHTLPYTFGQGTKLEIKR
Rat NGF [3]
  IC50 in the presence of 15 pM rat NGF, trigeminal neuron survival: ~31.6 pM
Human NGF
  IC50 (in the presence of 1.5 pM NGF), NGF-dependent survival of mouse E13.5 trigeminal neurons: < 1.2 pM
  IC50 (in the presence of 15 pM NGF), NGF-dependent survival of mouse E13.5 trigeminal neurons: < 21 pM
Rat NGF [2]
  IC50 (1.5 pM NGF), NGF-dependent survival of mouse E13.5 trigeminal neurons: < 1.3 pM
  IC50 (15 pM NGF), NGF-dependent survival of mouse E13.5 trigeminal neurons: < 8.3 pM
